The record followed here is PMC7415141, “Identification and characterization of cytosolic malate dehydrogenase from the liver fluke Fasciola gigantica” (Scientific Reports, 2020).

The target in series [1] is cytosolic malate dehydrogenase from Fasciola gigantica (Fasciola gigantica). As to the kind of experiment: SEC; gel filtration on Superdex 200 (AKTA FPLC), buffer B (50 mM phosphate pH 7.6, 150 mM NaCl, 10% glycerol), room temperature, 0.3 mL/min; column calibrated with mass standards; single peak at about 15.3 mL, ~72 kDa against ~36 kDa for the monomer.
Substrate in series [2]: NC(=O)C1=CN([C@@H]2O[C@H](COP(=O)(O)OP(=O)(O)OC[C@H]3O[C@@H](n4cnc5c(N)ncnc54)[C@H](O)[C@@H]3O)[C@@H](O)[C@H]2O)C=CC1
The series can be described thus: purified protein. The series is classed as biochemical, Fasciola gigantica. As to conditions: co-substrate oxaloacetate (0.2 mM), 50 mM Tris-Cl, pH 8.0, 25 °C, 50 nM enzyme, varied: cofactor.

Substrate in series [3]: O=C(O)CC(=O)C(=O)O
As to the kind of experiment: purified protein. The class given is biochemical, Fasciola gigantica. Particulars: co-substrate NADH (0.21 mM), 50 mM Tris-Cl, pH 8.0, 25 °C, 50 nM enzyme.

Substrate in series [4]: NC(=O)c1ccc[n+]([C@@H]2O[C@H](COP(=O)(O)OP(=O)(O)OC[C@H]3O[C@@H](n4cnc5c(N)ncnc54)[C@H](O)[C@@H]3O)[C@@H](O)[C@H]2O)c1
The series can be described thus: purified protein. The class given is biochemical, Fasciola gigantica. As to conditions: co-substrate malate (assay text: 3 mM, misprinted as MDH), 50 mM glycine buffer, pH 9.6, 25 °C, 50 nM enzyme, varied: cofactor.

Substrate in series [5]: O=C(O)C[C@H](O)C(=O)O
The series can be described thus: purified protein. As to conditions: co-substrate NAD+ (0.5 mM), 50 mM glycine buffer, pH 9.6, 25 °C, 50 nM enzyme. The series is classed as biochemical, Fasciola gigantica.

With “cytosolic malate dehydrogenase from Fasciola gigantica (enzyme)”, the stoichiometry N in series [1] stood at 2.

B1: FgMDH (cytosolic malate dehydrogenase of Fasciola gigantica) (Fasciola gigantica) (protein)
chain: MAPVKVLITGAAGQIGYNLAGMVARGDMLGPNQELILHLFDITPMLNSLHGLQMELDDCAFPLVREVVITDKAEVAFDDIDIALMVGAMPRKEGMERKDLLQANANIFKEQGKVLNEKAKKTVKVIVVGNPANTNALIMMKNAPSIPKENFSAMTRLDHNRATAQIAKRLKIPCTAVKNCVIWGNHSATQFPDVSHAVASIGGKDVKVWDAIKDEEWLKNEFVTTVQKRGAAVIAARKLSSAMSAAKAVVDHIHDWWYGTKPGEWVSMSVWSDGSYGAPVDVFFSFPVEIKDKKWTIVKDLSMDDWGKSMFKTTAEELSEEKVAALGK
notes: ~36 kDa, dimer ~72 kDa
For B1, the Km in “purified protein [2]” was 141 ± 54 µM; in “purified protein [3]”, 276 ± 92 µM; in the series “purified protein [4]” it was 309 ± 15 µM; in the series “purified protein [5]” it was 447 ± 47 µM. Besides, the maximal velocity (Vmax) in “purified protein [2]” worked out at 3.42 µmol/min; in “purified protein [3]” it was 4.1 µmol/min; in the series “purified protein [4]”, 18.7 µmol/min; in “purified protein [5]”, 5.45 µmol/min.
